± gives the uncertainty stated by the source.
B1: LIM and senescent cell antigen-like-containing domain protein 2, residues 13 to 71; numbered along this chain, Q7Z4I7 (parent)
chain: AVCQRCQARFSPAERIVNSNGELYHEHCFVCAQCFRPFPEGLFYEFEGRKYCEHDFQML

Variants of: B1
Assay: abundance fitness (aPCA) (normalised: wild type 0, dead -1); higher = more abundant; growth selection in yeast, the domain comes from the species named
Conditions: Homo sapiens

Row | Variant | abundance fitness
1 | AVCQRCGARFSPAERIVNSNGELYHEHCFVCAQCFRPFPEGLFYEFEGRKYCEHDFQML [Q7G] | 0.05 ± 0.053
2 | AVCQRCIARFSPAERIVNSNGELYHEHCFVCAQCFRPFPEGLFYEFEGRKYCEHDFQML [Q7I] | -0.231 ± 0.061
3 | AVCQRCLARFSPAERIVNSNGELYHEHCFVCAQCFRPFPEGLFYEFEGRKYCEHDFQML [Q7L] | 0.068 ± 0.04
4 | AVCQRCCARFSPAERIVNSNGELYHEHCFVCAQCFRPFPEGLFYEFEGRKYCEHDFQML [Q7C] | -0.194 ± 0.062
5 | AVCQRCMARFSPAERIVNSNGELYHEHCFVCAQCFRPFPEGLFYEFEGRKYCEHDFQML [Q7M] | 0.025 ± 0.053
6 | AVCQRCYARFSPAERIVNSNGELYHEHCFVCAQCFRPFPEGLFYEFEGRKYCEHDFQML [Q7Y] | -0.11 ± 0.072
7 | AVCQRCAARFSPAERIVNSNGELYHEHCFVCAQCFRPFPEGLFYEFEGRKYCEHDFQML [Q7A] | 0.057 ± 0.061
8 | AVCQRCTARFSPAERIVNSNGELYHEHCFVCAQCFRPFPEGLFYEFEGRKYCEHDFQML [Q7T] | 0.156 ± 0.051
9 | AVCQRCVARFSPAERIVNSNGELYHEHCFVCAQCFRPFPEGLFYEFEGRKYCEHDFQML [Q7V] | -0.121 ± 0.05
10 | AVCQRCWARFSPAERIVNSNGELYHEHCFVCAQCFRPFPEGLFYEFEGRKYCEHDFQML [Q7W] | 0.007 ± 0.052
11 | AVCQRCPARFSPAERIVNSNGELYHEHCFVCAQCFRPFPEGLFYEFEGRKYCEHDFQML [Q7P] | -0.802 ± 0.078
12 | AVCQRCSARFSPAERIVNSNGELYHEHCFVCAQCFRPFPEGLFYEFEGRKYCEHDFQML [Q7S] | -0.067 ± 0.042
13 | AVCQRCEARFSPAERIVNSNGELYHEHCFVCAQCFRPFPEGLFYEFEGRKYCEHDFQML [Q7E] | -0.668 ± 0.082
14 | AVCQRCFARFSPAERIVNSNGELYHEHCFVCAQCFRPFPEGLFYEFEGRKYCEHDFQML [Q7F] | -0.083 ± 0.064
15 | AVCQRCKARFSPAERIVNSNGELYHEHCFVCAQCFRPFPEGLFYEFEGRKYCEHDFQML [Q7K] | -0.832 ± 0.12
16 | AVCQRCDARFSPAERIVNSNGELYHEHCFVCAQCFRPFPEGLFYEFEGRKYCEHDFQML [Q7D] | -0.54 ± 0.11
17 | AVCQRCHARFSPAERIVNSNGELYHEHCFVCAQCFRPFPEGLFYEFEGRKYCEHDFQML [Q7H] | 0.003 ± 0.068
18 | AVCQRCNARFSPAERIVNSNGELYHEHCFVCAQCFRPFPEGLFYEFEGRKYCEHDFQML [Q7N] | -0.849 ± 0.12
19 | AVCQRCQGRFSPAERIVNSNGELYHEHCFVCAQCFRPFPEGLFYEFEGRKYCEHDFQML [A8G] | 0.184 ± 0.061
20 | AVCQRCQQRFSPAERIVNSNGELYHEHCFVCAQCFRPFPEGLFYEFEGRKYCEHDFQML [A8Q] | 0.147 ± 0.061
21 | AVCQRCQNRFSPAERIVNSNGELYHEHCFVCAQCFRPFPEGLFYEFEGRKYCEHDFQML [A8N] | -0.03 ± 0.08
22 | AVCQRCQVRFSPAERIVNSNGELYHEHCFVCAQCFRPFPEGLFYEFEGRKYCEHDFQML [A8V] | 0.071 ± 0.061
23 | AVCQRCQRRFSPAERIVNSNGELYHEHCFVCAQCFRPFPEGLFYEFEGRKYCEHDFQML [A8R] | 0.181 ± 0.041

Row | Variant | abundance fitness
24 | AVCQRCQDRFSPAERIVNSNGELYHEHCFVCAQCFRPFPEGLFYEFEGRKYCEHDFQML [A8D] | -0.119 ± 0.11
25 | AVCQRCQLRFSPAERIVNSNGELYHEHCFVCAQCFRPFPEGLFYEFEGRKYCEHDFQML [A8L] | 0.064 ± 0.038
26 | AVCQRCQPRFSPAERIVNSNGELYHEHCFVCAQCFRPFPEGLFYEFEGRKYCEHDFQML [A8P] | -0.797 ± 0.091
27 | AVCQRCQERFSPAERIVNSNGELYHEHCFVCAQCFRPFPEGLFYEFEGRKYCEHDFQML [A8E] | 0.327 ± 0.077
28 | AVCQRCQMRFSPAERIVNSNGELYHEHCFVCAQCFRPFPEGLFYEFEGRKYCEHDFQML [A8M] | 0.151 ± 0.062
29 | AVCQRCQFRFSPAERIVNSNGELYHEHCFVCAQCFRPFPEGLFYEFEGRKYCEHDFQML [A8F] | -0.039 ± 0.065
30 | AVCQRCQCRFSPAERIVNSNGELYHEHCFVCAQCFRPFPEGLFYEFEGRKYCEHDFQML [A8C] | 0.03 ± 0.067
31 | AVCQRCQIRFSPAERIVNSNGELYHEHCFVCAQCFRPFPEGLFYEFEGRKYCEHDFQML [A8I] | 0.073 ± 0.073
32 | AVCQRCQTRFSPAERIVNSNGELYHEHCFVCAQCFRPFPEGLFYEFEGRKYCEHDFQML [A8T] | 0.015 ± 0.054
33 | AVCQRCQSRFSPAERIVNSNGELYHEHCFVCAQCFRPFPEGLFYEFEGRKYCEHDFQML [A8S] | 0.076 ± 0.045
34 | AVCQRCQHRFSPAERIVNSNGELYHEHCFVCAQCFRPFPEGLFYEFEGRKYCEHDFQML [A8H] | -0.041 ± 0.1
35 | AVCQRCQKRFSPAERIVNSNGELYHEHCFVCAQCFRPFPEGLFYEFEGRKYCEHDFQML [A8K] | 0.166 ± 0.053
36 | AVCQRWQARFSPAERIVNSNGELYHEHCFVCAQCFRPFPEGLFYEFEGRKYCEHDFQML [C6W] | -0.769 ± 0.095
37 | AVCQRMQARFSPAERIVNSNGELYHEHCFVCAQCFRPFPEGLFYEFEGRKYCEHDFQML [C6M] | -0.34 ± 0.098
38 | AVCQRKQARFSPAERIVNSNGELYHEHCFVCAQCFRPFPEGLFYEFEGRKYCEHDFQML [C6K] | -0.469 ± 0.11
39 | AVCQRYQARFSPAERIVNSNGELYHEHCFVCAQCFRPFPEGLFYEFEGRKYCEHDFQML [C6Y] | -0.732 ± 0.16
40 | AVCQRNQARFSPAERIVNSNGELYHEHCFVCAQCFRPFPEGLFYEFEGRKYCEHDFQML [C6N] | -0.679 ± 0.15
41 | AVCQRRQARFSPAERIVNSNGELYHEHCFVCAQCFRPFPEGLFYEFEGRKYCEHDFQML [C6R] | -0.544 ± 0.065
42 | AVCQRTQARFSPAERIVNSNGELYHEHCFVCAQCFRPFPEGLFYEFEGRKYCEHDFQML [C6T] | -0.935 ± 0.16
43 | AVCQRPQARFSPAERIVNSNGELYHEHCFVCAQCFRPFPEGLFYEFEGRKYCEHDFQML [C6P] | -0.896 ± 0.14
44 | AVCQRQQARFSPAERIVNSNGELYHEHCFVCAQCFRPFPEGLFYEFEGRKYCEHDFQML [C6Q] | -0.878 ± 0.16
45 | AVCQRSQARFSPAERIVNSNGELYHEHCFVCAQCFRPFPEGLFYEFEGRKYCEHDFQML [C6S] | -0.804 ± 0.084

Source: the Human Domainome abundance scans (Beltran et al. 2025)
